In patent publication US20240101645A1 (HENRY M JACKSON FOUNDATION FOR THE ADVANCEMENT OF MILITARY …, published 2024):
Residue numbers refer to the chain shown, from its start.

T1: MERS-CoV spike antigens (bead panel) (MERS-CoV, UniProt K9N5Q8 18-1296)
T1 sequence: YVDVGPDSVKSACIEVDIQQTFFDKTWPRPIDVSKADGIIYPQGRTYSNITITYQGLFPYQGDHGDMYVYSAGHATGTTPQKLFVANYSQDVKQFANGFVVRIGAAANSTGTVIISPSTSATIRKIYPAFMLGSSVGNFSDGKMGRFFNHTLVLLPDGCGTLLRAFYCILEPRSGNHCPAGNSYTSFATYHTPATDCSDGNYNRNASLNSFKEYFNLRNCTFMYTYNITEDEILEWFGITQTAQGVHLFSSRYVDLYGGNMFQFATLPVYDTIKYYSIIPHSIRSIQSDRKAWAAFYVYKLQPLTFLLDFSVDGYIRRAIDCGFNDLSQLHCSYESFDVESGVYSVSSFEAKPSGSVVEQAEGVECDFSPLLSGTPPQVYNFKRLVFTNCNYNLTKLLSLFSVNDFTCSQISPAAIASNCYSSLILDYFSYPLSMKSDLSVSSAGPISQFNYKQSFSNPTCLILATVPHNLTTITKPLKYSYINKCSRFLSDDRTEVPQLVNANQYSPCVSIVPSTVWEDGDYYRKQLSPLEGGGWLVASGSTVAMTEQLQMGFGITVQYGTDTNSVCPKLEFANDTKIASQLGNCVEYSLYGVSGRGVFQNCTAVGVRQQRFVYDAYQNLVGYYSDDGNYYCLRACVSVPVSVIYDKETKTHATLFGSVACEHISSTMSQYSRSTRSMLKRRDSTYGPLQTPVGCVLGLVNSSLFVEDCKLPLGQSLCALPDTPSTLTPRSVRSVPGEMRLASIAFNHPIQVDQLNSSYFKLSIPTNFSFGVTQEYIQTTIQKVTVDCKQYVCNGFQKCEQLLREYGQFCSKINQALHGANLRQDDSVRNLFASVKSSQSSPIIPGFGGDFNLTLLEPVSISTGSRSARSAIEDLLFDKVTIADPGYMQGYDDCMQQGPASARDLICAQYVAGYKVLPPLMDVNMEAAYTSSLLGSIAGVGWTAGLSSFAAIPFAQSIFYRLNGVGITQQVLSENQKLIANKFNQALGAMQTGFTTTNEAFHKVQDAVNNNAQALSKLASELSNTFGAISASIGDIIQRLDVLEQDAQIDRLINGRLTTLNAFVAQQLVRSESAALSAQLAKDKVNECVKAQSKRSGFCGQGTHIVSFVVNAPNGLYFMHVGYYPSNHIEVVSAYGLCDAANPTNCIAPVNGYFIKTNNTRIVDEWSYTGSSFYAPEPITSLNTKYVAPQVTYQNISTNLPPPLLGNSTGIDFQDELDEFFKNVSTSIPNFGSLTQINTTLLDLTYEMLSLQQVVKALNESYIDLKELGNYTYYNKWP

B1: COV_3129 (antibody, V domains shown)
VH: QVQLQQWGAGLLKPSDTLSLTCAANGGGSFSGYYLGYIRQSPGKGLEWIGEINHNGGTNYNPSLKSRVTISGDTSKNQFSLKLSSVTAADTAIYYCARSRDSSLGDAVWYEYWGQGTLITVSS
VL: EIVLTQSPATLSLSPGERATLSCRASQSVDIYLAWYQQRPGQAPRLLISDASKRATGVPARFSGSGSGTDFTLTINSLEPEDFAIYYCQQRRDWPINFGQGTRLEIKR
notes: human IgG1
B2: COV_2172 (SEQ ID NO:872/877) (antibody, V domains shown)
VH: EVQLVESGGGVVQPGRSLRLSCAPSGFTFSTYAMHWVRQAPGKGLEWVAVISYDGSIKYYADSVKGRFTISRDNTMNTVFLQMNSLRAEDTAVYFCAKGGERWELFTSFDYWGQGTQVTVSS
VL: QSALTQPRSVSGSPGQSVTISCTGTSSDVGGYNYVSWYQQHPGKAPKLMIYDVSKRPSGVPDRFSGSKSGNTASLTISGLQAEDEADYYCCSYAGSYTFVFGGGTKLTVLG
B3: COV_3069 (antibody, V domains shown)
VH: EVQLVESGGGLVKPGGSLRLSCAASGFTFGSYTMNWVRQAPGKGLEWVSSIDTTSSSIYYADSLKGRFAISRDSAKNSLYLQMNRLRAEDTAVYYCARGNGHSYDSSGYHYGMYFDYWGQGTLVTVSS
VL: DIQMTQSPSTLSASVGDRVTITCRASQSISRWLAWYQQKPGKAPKLLIYEVSSLENGVPSRFSGSRSGTEFTLTISSLQPDDFAIYYCQQYNTYSRTFGQGTKVEIKR
notes: human IgG1
B4: COV_2205 (antibody, V domains shown)
VH: EVQLVESGGGLVKPGGSLRLSCAASGFTFSDYYMIWIRQAPGEGLEWVSYISSRSSYTNYADSVKGRFTISRDNARNSLYLQMNSLRAEDTAVYYCARGQHDLLTGYYSWAYFDYWGQGTLVTVSS
VL: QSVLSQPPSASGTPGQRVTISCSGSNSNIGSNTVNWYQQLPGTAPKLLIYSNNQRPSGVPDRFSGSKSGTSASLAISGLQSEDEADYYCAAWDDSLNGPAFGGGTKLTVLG
notes: human IgG1
B5: COV_2215 (antibody, V domains shown)
VH: EVQLVESGGGLVKPGGSLRLSCAASGFTFSHAWMSWVRQAPGKGLEWVGRIKSKTDGGTADYAAPVKGRFTISRDDSKNTLYLQMNSLKTEDTAVYYCATIRYYYDSSAYLNDAFDIWGQGTMVTVSS
VL: SYELTQPPSVSVSPGQTARITCSGDALPKKYAYWYQQKSGQAPVLVIYEDSKRPSGIPERFSGSSSGTMATLTISGAQVEDEADYYCYSTDSSGNHRVFAGGTKLTVLG
notes: human IgG1
B6: COV_3077 (antibody, V domains shown)
VH: QVQLQESGPGLVKPSETLSLTCAVSGYSISSGYYWGWIRQPPGKGLEWIGSIYHSGSTYYNPSLKSRVTISVDTSKNQFSLKLSSVTAADTAVYYCARALYDAFDIWGQGTMVTVSS
VL: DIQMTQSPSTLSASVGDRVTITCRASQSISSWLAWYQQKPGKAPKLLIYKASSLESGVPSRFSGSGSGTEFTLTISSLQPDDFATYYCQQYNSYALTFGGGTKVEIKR
notes: human IgG1
B7: COV_1149 (antibody, V domains shown)
VH: QVQLVESGGGVVQPGRSLRLSCAASGFTFSSYGMHWVRQAPGKGLEWVAVISYDGSNKYYADSVKGRFTISRDNSKNTLYLQMNSLRAEDTAVYYCAKTGGGYSYGLGNVWGQGTLVTVSS
VL: QSALTQPASVSGSPGQSITISCTGTSSDVGGYNYVSWYQQHPGKAPKLMIYDVSNRPSGVSNRFSGSKSGNTASLTISGLQAEDEADYYCSSYTSSSTLVVFGGGTKLTVLG
notes: human IgG1
B8: COV_2014 (antibody, V domains shown)
VH: QVQLVQSGAEVKKPGASVKVSCKVSGYTLTELSMHWVRQAPGKGLEWMGGFDPEDGETIYAQKFQGRVTMTEDTSTDTAYMELSSLRSEDTAVYYCATGKINYYDSSGYYGTFDYWGQGTLVTVSS
VL: AIQLTQSPSSLSASVGDRVTITCRASQGISSYLAWYQQKPGKAPKLLIYAASTLQSGVPSRFSGSGSGTDFTLTISSLQPEDFATYYCQQLNSYHLTFGQGTRLEIK
notes: human IgG1
B9: COV_1201 (antibody, V domains shown)
VH: QVQLVQSGAEVKKPGASMKVSCKASGYTFTGYYIHWVRQAPGQGLEWMGRINPNSGGTNYAQKFQGRVTMTRDTSISTAYMELSRLRSDDTAVYYCAREYYYVPYGMDVWGQGTTVTVSS
VL: QSALTQPASVSGSPGQSITISCTGTSSDVGGYNFVSWYQHHPGKAPKLMIYEVSNRPSGVSNRFSGSKSGNTASLTISGLQAEDEADYYCSSYTSSSTYVFGTGTKVTVL
notes: human IgG1
B10: COV_2056 (SEQ ID NO:792/797) (antibody, V domains shown)
VH: EVQLVESGGGVVQPGRSLRLSCAASGFTFSIYGMHWVRQAPGKGLEWVALISYDGTNKYYADSVKGRFSISRDDSKNTLYLQMNSLRPEDTAVYYCAKVLMMGDSSGFSLGDAFDIWGQGTMVTVSS
VL: DIQMTQSPSSVSASVGDRVTITCRASQGISNWLAWYQQKPGKAPKLLIYAASSLQSGVPSRFSGSVSGTDFTLTISSLQPEDFATYYCQQANSFPLTFGGGTKVDIKR
B11: COV_2174 (antibody, V domains shown)
VH: EVQLAESGGGLVKPGGSLRLSCAASGFTFSDYYMSWIRQAPGKGLEWVSYISSSGSTIYYADSVKGRFTISRDNAKNSLYLQMNSLRAEDTAVYYCARDWSVVVVPAAPAVDVWGQGTTVTVSS
VL: B10 VL with V11L, W32Y, Y36F, L46S, R61K, V66G, A91Y, F94Y, D105E
notes: human IgG1
B12: COV_3088 (antibody, V domains shown)
VH: EVQLVESGGGLVQPGGSLRLSCAASGFTFSSYDMHWVRQATGKGLEWVSAIGTAGDTYYPGSVKGRFTISRENAKNSLYLQMNSLRAGDTAVYYCARGSGWPPFFDYWGQGTLVTVSS
VL: SYELTQPPSVSVAPGKTARITCGGNNIGSKSVHWYQQKPGQAPVLVIYYDSDRPSGIPERFSGSNSGNTATLTISRVEAGDEADYYCQVWDSSSDHHWVFGGGTKLTVL
notes: human IgG1
B13: COV_2169 (antibody, V domains shown)
VH: EVQLVESGGGVVQPGRSLRLSCAASGFTFSRYAMHWVRQAPGKGLEWVAVISYEGSNKYYADSVKGRFTISRNNSNNTLSLQMNSLRPDDTAVYYCVRSGGHYFDAFDLWGQGTMVTVSS
VL: EIVLTQSPGTLSLSPGERATLSCRASQSVSRNYVAWYQQKPGQAPRLLIYGASSRATGIPDRFSGSGSGTDFTLTISRLEPEDFALYYCQQYGSSYTFGQGTKLEIKR
notes: human IgG1
B14: COV_1050 (antibody, V domains shown)
VH: QVQLVESGGGVVQPGRSLRLSCAASRFTFSSYAMHWVRQAPGKGLEWVAVISFDGSNKYYADSVKGRFTIFRDNSKNTLSLQMNSLRTEDTAMYYCASPAGYYESLWGQGTLVTVSS
VL: SYELTQPPSVSVSPGQTARVTCSGDALSKQYGFWYQQKPGQAPTLVIYKDTERPSGIPERFSGSGSGTTVTLTISGVQAEDEADYYCQSTDNSGRWVFGGGTKLTVLG
notes: human IgG1
B15: COV_2008 (antibody, V domains shown)
VH: QVRVVQSGAEVKNPGASVKVSCKVSGYTLTELSIHWVRQAPGNGLEWMGGFDPEDGETIYAQKFQGRVTMTEDTSTDTAYMELSSLRSDDTAVYYCATAGAITGTPRNFYYYYGMDVWGQGTTVTVSS
VL: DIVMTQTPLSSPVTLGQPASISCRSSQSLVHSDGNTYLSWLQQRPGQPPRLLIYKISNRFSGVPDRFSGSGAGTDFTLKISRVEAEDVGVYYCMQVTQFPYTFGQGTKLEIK
notes: human IgG1

What follows are binders tested against T1, MERS-CoV spike antigens (bead panel) (assay: multiplex bead assay).
B1: no binding.
B2: no binding.
B3: no binding.
B4: no binding.
B5: no binding.
B6: no binding.
B7: no binding.
B8: no binding.
B9: no binding.
B10: no binding.
B11: no binding.
B12: no binding.
B13: no binding.
B14: no binding.

These binders were tested against SARS-CoV-1 spike antigens (bead panel) (SARS-CoV-1, UniProt P59594 14-1195) (assay: multiplex bead assay).
B1: no binding.
B2: no binding.
B3: no binding.
B4: no binding.
B5: no binding.
B6: no binding.
B7: no binding.
B8: no binding.
B9: no binding.
B10: no binding.
B11: no binding.
B12: no binding.
B15: no binding.
B13: no binding.
B14: no binding.

Each binder was assayed against SARS-CoV-2 S on pseudovirions (Wuhan Hu-1 / IL1/2020, last 18 amino acids removed) (SARS-CoV-2, UniProt P0DTC2 14-1273) (assay: cell-based or functional assay).
With B2 the “Mean IC50, pSV neutralization” value was 3.99 µg/ml and the “Mean IC80, pSV neutralization” value was at least 25 µg/ml.
In the case of B6, the “Mean IC50, pSV neutralization” value is reported as at least 25 µg/ml and the “Mean IC80, pSV neutralization” value is reported as at least 25 µg/ml.
With B7 the “Mean IC50, pSV neutralization” value was at least 25 µg/ml and the “Mean IC80, pSV neutralization” value was at least 25 µg/ml.
B8 was tested, and the “Mean IC50, pSV neutralization” value was at least 25 µg/ml and the “Mean IC80, pSV neutralization” value was at least 25 µg/ml.
With B9 the “Mean IC50, pSV neutralization” value was 0.09 µg/ml and the “Mean IC80, pSV neutralization” value was 0.3 µg/ml.
B10 was tested, and the “Mean IC50, pSV neutralization” value was 7.46 µg/ml and the “Mean IC80, pSV neutralization” value was at least 25 µg/ml.
For B11, the “Mean IC50, pSV neutralization” value was 0.502 µg/ml and the “Mean IC80, pSV neutralization” value was 2.04 µg/ml.
With B12 the “Mean IC50, pSV neutralization” value was at least 25 µg/ml and the “Mean IC80, pSV neutralization” value was at least 25 µg/ml.
In the case of B15, the “Mean IC50, pSV neutralization” value is reported as 0.02 µg/ml and the “Mean IC80, pSV neutralization” value is reported as 0.31 µg/ml.
In the case of B14, the “Mean IC50, pSV neutralization” value is reported as at least 25 µg/ml and the “Mean IC80, pSV neutralization” value is reported as at least 25 µg/ml.

Each binder was assayed against T2, SARS-CoV-2 NTD (1-290) (SARS-CoV-2, UniProt P0DTC2 14-290) (assay: BLI, 1:1 model).
T2 construct: range 1-290
In the case of B15, the Kd is reported as under 1 pM.
